Target: T1, 58P1D12 protein expressed on the cell surface (3T3-58P1D12, MDCK/58P1D12, OVCAR-5/58P1D12, xenograft cells) (human, UniProt Q9H9P2 22-273)
T1 construct: also called cell surface 58P1D12; 58P1D12-3T3
T1 sequence: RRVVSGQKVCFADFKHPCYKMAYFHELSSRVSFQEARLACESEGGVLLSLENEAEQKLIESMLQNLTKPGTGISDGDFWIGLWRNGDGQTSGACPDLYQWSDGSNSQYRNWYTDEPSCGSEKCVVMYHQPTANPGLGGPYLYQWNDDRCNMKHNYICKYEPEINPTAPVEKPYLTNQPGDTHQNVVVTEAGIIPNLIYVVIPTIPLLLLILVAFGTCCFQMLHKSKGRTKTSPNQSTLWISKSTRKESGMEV
Assay: FACS saturation binding on 3T3-58P1D12 cells, one site binding fit

- Kd: 3 nM
B1: 58P1D12 MAb Ha8-4c4.1 (hybridoma ATCC PTA-9404) (antibody, V domains shown)
VH: QVQLQESGPGLVKPSETLSLTCTVSGGSVSSGGYYWSWIRQPPGKGLEWIGYIYYSGGTNYNPSLKSRVTISVDTSKNQFSLKLTSVTAADTAVYYCARESGYCTNVACFPDAFDIWGQGTMVTVSS
VL: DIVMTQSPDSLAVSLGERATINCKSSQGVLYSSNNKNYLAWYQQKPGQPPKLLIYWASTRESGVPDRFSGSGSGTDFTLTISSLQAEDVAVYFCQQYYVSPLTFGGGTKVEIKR
notes: Fully human IgG1 kappa (gamma 1 kappa) from XenoMouse

Reference: US20100047166A1 (published 2010)
